Among the data in article PMC3643951 (PLoS ONE, 2013) are Kd values, retold here.

The chains are these.
B1: TRPC6(801–878) K856A (domain or fragment, rat, UniProt Q99N78 801-878, looked up)
chain: NKRNEEKKFGILGSHEDLSKFSLDRNQLAHNKQSSTRSSEDFHLNSFSNPPRQYQAIMKRLIKRYVLQAQIDKESDEV
notes: C-terminal part of rat TRPC6, amino acids 801-878, with K856A; Same construct as m1 (pET42b) with the point mutation; source: E. coli Rosetta, purified (Chelating Sepharose Fast Flow, Superdex 75)
B2: TRPC6(801–878) K859A/R860A/R864A (domain or fragment, rat, UniProt Q99N78 801-878, looked up)
chain: NKRNEEKKFGILGSHEDLSKFSLDRNQLAHNKQSSTRSSEDFHLNSFSNPPRQYQKIMAALIKAYVLQAQIDKESDEV
notes: C-terminal part of rat TRPC6, amino acids 801-878, with K859A, R860A and R864A; Same construct as m1 (pET42b) with the triple substitution; also called triple substitution Lys859/Arg860/Arg864; source: E. coli Rosetta, purified (Chelating Sepharose Fast Flow, Superdex 75)
B3: TRPC6(801–878) R864A (domain or fragment, rat, UniProt Q99N78 801-878, looked up)
chain: NKRNEEKKFGILGSHEDLSKFSLDRNQLAHNKQSSTRSSEDFHLNSFSNPPRQYQKIMKRLIKAYVLQAQIDKESDEV
notes: C-terminal part of rat TRPC6, amino acids 801-878, with R864A; Same construct as m1 (pET42b) with the point mutation; source: E. coli Rosetta, purified (Chelating Sepharose Fast Flow, Superdex 75)
B4: TRPC6(801–878) R852A/K859A/R860A (domain or fragment, rat, UniProt Q99N78 801-878, looked up)
chain: NKRNEEKKFGILGSHEDLSKFSLDRNQLAHNKQSSTRSSEDFHLNSFSNPPAQYQKIMAALIKRYVLQAQIDKESDEV
notes: C-terminal part of rat TRPC6, amino acids 801-878, with R852A, K859A and R860A; Same construct as m1 (pET42b) with the triple substitution; also called triple mutation Arg852/Lys859/Arg860; source: E. coli Rosetta, purified (Chelating Sepharose Fast Flow, Superdex 75)
B5: TRPC6(801–878) R852A (domain or fragment, rat, UniProt Q99N78 801-878, looked up)
chain: NKRNEEKKFGILGSHEDLSKFSLDRNQLAHNKQSSTRSSEDFHLNSFSNPPAQYQKIMKRLIKRYVLQAQIDKESDEV
notes: C-terminal part of rat TRPC6, amino acids 801-878, with R852A; Same construct as m1 (pET42b) with the point mutation; also called TRPC6 single mutant R852A; source: E. coli Rosetta, purified (Chelating Sepharose Fast Flow, Superdex 75)

In the assay the target is T1, S100A1 protein, dansyl-labelled (human, UniProt P23297 1-94, dansyl (DNS) label from dansyl chloride, site not stated).
T1 construct: human S100A1; cDNA cloned into pET28b; No tag is mentioned; purification was by Phenyl Sepharose; also called DNS-S100A1; Ca2+-S100A1; source: E. coli BL21, purified (Phenyl Sepharose CL4B, Superdex 75), labelled with dansyl chloride
T1 sequence (looked up): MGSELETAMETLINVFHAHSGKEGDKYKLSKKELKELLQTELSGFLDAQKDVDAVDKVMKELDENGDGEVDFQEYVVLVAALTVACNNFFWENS
As to the kind of experiment: fluorescence polarisation; steady-state fluorescence anisotropy; TRPC6 construct titrated into DNS-S100A1 solution (232 µM as printed) in presence of calcium ions; excitation 340 nm, emission 520 nm. The settings on record: both partners purified.
Usually Kd stands for the free concentration of one partner at which half of the binding sites on the other are occupied at equilibrium, for simple one-to-one binding. As for B1, the equilibrium dissociation constant (Kd) was 760 nM. Consider B2, for which the Kd is 400 nM.

Regarding B3, the Kd came to 920 nM. As for B4, the Kd came to 2620 nM. As to B5, the Kd was determined as 480 nM.
